Test results taken from US20220002395A1 (FAPON BIOTECH, published 2022).

T1: Plasmodium falciparum histidine-rich protein II (HRP-II) (Plasmodium falciparum, UniProt P05227 22-332)
T1 construct: Coating antigen of all ELISAs; also called HRP-II protein; MA-HRPII Ag protein
T1 sequence (looked up): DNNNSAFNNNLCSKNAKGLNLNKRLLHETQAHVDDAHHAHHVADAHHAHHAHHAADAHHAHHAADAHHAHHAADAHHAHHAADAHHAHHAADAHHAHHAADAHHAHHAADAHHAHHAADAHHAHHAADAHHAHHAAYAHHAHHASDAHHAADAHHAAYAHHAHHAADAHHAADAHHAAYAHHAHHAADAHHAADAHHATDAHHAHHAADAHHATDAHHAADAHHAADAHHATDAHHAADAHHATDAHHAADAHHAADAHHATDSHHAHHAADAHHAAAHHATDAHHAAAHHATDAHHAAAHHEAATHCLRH

B1: WT 1-1 (antibody, mouse IgG2b, kappa, V domains shown)
VH: EVQLQQSGPEVVKPGASVKISCKASGYTITEYYMNWVKQSHGKGLEWIGDVNPINGGTPYQQKFRDKATLTVDKSSNTAYMELRSLTSEDSALYYCTKGAEEYWGQGTTLTVSS
VL: DVVLTQTPLSLSVTIGQPASISCKSSQSLLYSNGKIYINWFQQRPGQSPKRLMYQISKIEPGIPDRFSGSGSETDFTLKISRVEAEDLGVYYCLQATYSPNTFGGGTKLEIKR
notes: WT as framework
B2: WT 1-4 (antibody, mouse IgG2b, kappa, V domains shown)
VH: EVQLQQSGPEVVKPGASVKISCKASGTTLTEYYMNWVKQSHGKGLEWIGDVNPINGGTPYNQKFRDKATLTVDKSSNTAYMELRSLTSEDSALYYCTKGAEEYWGQGTTLTVSS
VL: DVVLTQTPLSLSVTIGQPASISCKSSQSLIYSQGKIYINWFQQRPGQSPKRLMYQISKIEPGIPDRFSGSGSETDFTLKISRVEAEDLGVYYCLQATYTPNTFGGGTKLEIKR
notes: WT as framework
B3: WT 1-5 (antibody, mouse IgG2b, kappa, V domains shown)
VH: EVQLQQSGPEVVKPGASVKISCKASGYTITEYYMNWVKQSHGKGLEWIGDLNPIQGGTPYQQKFRDKATLTVDKSSNTAYMELRSLTSEDSALYYCTRGAEEYWGQGTTLTVSS
VL: DVVLTQTPLSLSVTIGQPASISCKSSQSLLYSQGKIYINWFQQRPGQSPKRLMYQLSKIDPGIPDRFSGSGSETDFTLKISRVEAEDLGVYYCLQATYSPNTFGGGTKLEIKR
notes: WT as framework
B4: WT 1-2 (antibody, mouse IgG2b, kappa, V domains shown)
VH: EVQLQQSGPEVVKPGASVKISCKASGTTLTEYYMNWVKQSHGKGLEWIGDINPIQGGTPYNQKFRDKATLTVDKSSNTAYMELRSLTSEDSALYYCTRGAEEYWGQGTTLTVSS
VL: DVVLTQTPLSLSVTIGQPASISCKSSQSILYSQGKIYINWFQQRPGQSPKRLMYQLSKIDPGIPDRFSGSGSETDFTLKISRVEAEDLGVYYCLQATYTPNTFGGGTKLEIKR
notes: WT as framework
B5: WT 1-3 (antibody, mouse IgG2b, kappa, V domains shown)
VH: EVQLQQSGPEVVKPGASVKISCKASGSTITEYYMNWVKQSHGKGLEWIGDLNPINGGTPYQQKFRDKATLTVDKSSNTAYMELRSLTSEDSALYYCTKGAEEYWGQGTTLTVSS
VL: DVVLTQTPLSLSVTIGQPASISCKSSQSIIYSNGKIYINWFQQRPGQSPKRLMYQVSKIEPGIPDRFSGSGSETDFTLKISRVEAEDLGVYYCLQGTYYPNTFGGGTKLEIKR
notes: WT as framework
B6: Mutation 1-32 (antibody, mouse IgG2b, kappa, V domains shown)
VH: EVQLQQSGPEVVKPGASVKISCKASGYTITDYYMNWVKQSHGKGLEWIGDVNPIQGGTAYQQKFRDKATLTVDKSSNTAYMELRSLTSEDSALYYCTRGAEDYWGQGTTLTVSS
VL: DVVLTQTPLSLSVTIGQPASISCKSSQSLLYSNGKIYLNWFQQRPGQSPKRLMYQLSKLDPGIPDRFSGSGSETDFTLKISRVEAEDLGVYYCLQATYYPQTFGGGTKLEIKR
notes: Mutation 1 as framework
B7: Mutation 1-29 (antibody, mouse IgG2b, kappa, V domains shown)
VH: EVQLQQSGPEVVKPGASVKISCKASGYTITDYYMNWVKQSHGKGLEWIGDVNPIQGGTAYNQKFRDKATLTVDKSSNTAYMELRSLTSEDSALYYCTRGAEDYWGQGTTLTVSS
VL: DVVLTQTPLSLSVTIGQPASISCKSSQSIIYSQGKIYLNWFQQRPGQSPKRLMYQVSKLEPGIPDRFSGSGSETDFTLKISRVEAEDLGVYYCLQGTYYPQTFGGGTKLEIKR
notes: Mutation 1 as framework
B8: Mutation 1-33 (antibody, mouse IgG2b, kappa, V domains shown)
VH: EVQLQQSGPEVVKPGASVKISCKASGTTLTDYYMNWVKQSHGKGLEWIGDLNPIQGGTAYNQKFRDKATLTVDKSSNTAYMELRSLTSEDSALYYCTKGAEDYWGQGTTLTVSS
VL: DVVLTQTPLSLSVTIGQPASISCKSSQSLLYSNGKIYLNWFQQRPGQSPKRLMYQLSKLEPGIPDRFSGSGSETDFTLKISRVEAEDLGVYYCLQGTYSPQTFGGGTKLEIKR
notes: Mutation 1 as framework
B9: Mutation 1-46 (antibody, mouse IgG2b, kappa, V domains shown)
VH: EVQLQQSGPEVVKPGASVKISCKASGYTITDYYMNWVKQSHGKGLEWIGDINPINGGTAYNQKFRDKATLTVDKSSNTAYMELRSLTSEDSALYYCTRGAEDYWGQGTTLTVSS
VL: DVVLTQTPLSLSVTIGQPASISCKSSQSILYSQGKIYLNWFQQRPGQSPKRLMYQVSKLDPGIPDRFSGSGSETDFTLKISRVEAEDLGVYYCLQGTYTPQTFGGGTKLEIKR
notes: Mutation 1 as framework
B10: Mutation 1-49 (antibody, mouse IgG2b, kappa, V domains shown)
VH: EVQLQQSGPEVVKPGASVKISCKASGYTLTDYYMNWVKQSHGKGLEWIGDINPIQGGTAYNQKFRDKATLTVDKSSNTAYMELRSLTSEDSALYYCTKGAEDYWGQGTTLTVSS
VL: DVVLTQTPLSLSVTIGQPASISCKSSQSLLYSQGKIYLNWFQQRPGQSPKRLMYQISKLEPGIPDRFSGSGSETDFTLKISRVEAEDLGVYYCLQATYTPQTFGGGTKLEIKR
notes: Mutation 1 as framework
B11: Mutation 1-39 (antibody, mouse IgG2b, kappa, V domains shown)
VH: EVQLQQSGPEVVKPGASVKISCKASGTTLTDYYMNWVKQSHGKGLEWIGDLNPINGGTAYQQKFRDKATLTVDKSSNTAYMELRSLTSEDSALYYCTKGAEDYWGQGTTLTVSS
VL: DVVLTQTPLSLSVTIGQPASISCKSSQSLLYSNGKIYLNWFQQRPGQSPKRLMYQLSKLEPGIPDRFSGSGSETDFTLKISRVEAEDLGVYYCLQATYTPQTFGGGTKLEIKR
notes: Mutation 1 as framework
B12: Mutation 1-45 (antibody, mouse IgG2b, kappa, V domains shown)
VH: EVQLQQSGPEVVKPGASVKISCKASGYTITDYYMNWVKQSHGKGLEWIGDLNPINGGTAYNQKFRDKATLTVDKSSNTAYMELRSLTSEDSALYYCTKGAEDYWGQGTTLTVSS
VL: DVVLTQTPLSLSVTIGQPASISCKSSQSILYSQGKIYLNWFQQRPGQSPKRLMYQLSKLEPGIPDRFSGSGSETDFTLKISRVEAEDLGVYYCLQGTYYPQTFGGGTKLEIKR
notes: Mutation 1 as framework
B13: Mutation 1-41 (antibody, mouse IgG2b, kappa, V domains shown)
VH: EVQLQQSGPEVVKPGASVKISCKASGYTLTDYYMNWVKQSHGKGLEWIGDVNPINGGTAYQQKFRDKATLTVDKSSNTAYMELRSLTSEDSALYYCTKGAEDYWGQGTTLTVSS
VL: DVVLTQTPLSLSVTIGQPASISCKSSQSILYSNGKIYLNWFQQRPGQSPKRLMYQVSKLEPGIPDRFSGSGSETDFTLKISRVEAEDLGVYYCLQATYYPQTFGGGTKLEIKR
notes: Mutation 1 as framework
B14: Mutation 1-50 (antibody, mouse IgG2b, kappa, V domains shown)
VH: EVQLQQSGPEVVKPGASVKISCKASGYTITDYYMNWVKQSHGKGLEWIGDVNPIQGGTAYQQKFRDKATLTVDKSSNTAYMELRSLTSEDSALYYCTRGAEDYWGQGTTLTVSS
VL: DVVLTQTPLSLSVTIGQPASISCKSSQSLLYSNGKIYLNWFQQRPGQSPKRLMYQLSKLEPGIPDRFSGSGSETDFTLKISRVEAEDLGVYYCLQATYYPQTFGGGTKLEIKR
notes: Mutation 1 as framework
B15: Mutation 1-48 (antibody, mouse IgG2b, kappa, V domains shown)
VH: EVQLQQSGPEVVKPGASVKISCKASGYTITDYYMNWVKQSHGKGLEWIGDLNPIQGGTAYNQKFRDKATLTVDKSSNTAYMELRSLTSEDSALYYCTRGAEDYWGQGTTLTVSS
VL: DVVLTQTPLSLSVTIGQPASISCKSSQSLLYSQGKIYLNWFQQRPGQSPKRLMYQISKLDPGIPDRFSGSGSETDFTLKISRVEAEDLGVYYCLQGTYYPQTFGGGTKLEIKR
notes: Mutation 1 as framework
B16: Mutation 1-31 (antibody, mouse IgG2b, kappa, V domains shown)
VH: EVQLQQSGPEVVKPGASVKISCKASGTTLTDYYMNWVKQSHGKGLEWIGDINPINGGTAYQQKFRDKATLTVDKSSNTAYMELRSLTSEDSALYYCTKGAEDYWGQGTTLTVSS
VL: DVVLTQTPLSLSVTIGQPASISCKSSQSLLYSNGKIYLNWFQQRPGQSPKRLMYQISKLEPGIPDRFSGSGSETDFTLKISRVEAEDLGVYYCLQGTYTPQTFGGGTKLEIKR
notes: Mutation 1 as framework
B17: Mutation 1-37 (antibody, mouse IgG2b, kappa, V domains shown)
VH: EVQLQQSGPEVVKPGASVKISCKASGYTITDYYMNWVKQSHGKGLEWIGDINPINGGTAYQQKFRDKATLTVDKSSNTAYMELRSLTSEDSALYYCTKGAEDYWGQGTTLTVSS
VL: DVVLTQTPLSLSVTIGQPASISCKSSQSLLYSNGKIYLNWFQQRPGQSPKRLMYQISKLEPGIPDRFSGSGSETDFTLKISRVEAEDLGVYYCLQATYYPQTFGGGTKLEIKR
notes: Mutation 1 as framework
B18: Mutation 1-35 (antibody, mouse IgG2b, kappa, V domains shown)
VH: EVQLQQSGPEVVKPGASVKISCKASGYTITDYYMNWVKQSHGKGLEWIGDVNPIQGGTAYQQKFRDKATLTVDKSSNTAYMELRSLTSEDSALYYCTRGAEDYWGQGTTLTVSS
VL: DVVLTQTPLSLSVTIGQPASISCKSSQSLLYSNGKIYLNWFQQRPGQSPKRLMYQVSKLEPGIPDRFSGSGSETDFTLKISRVEAEDLGVYYCLQATYYPQTFGGGTKLEIKR
notes: Mutation 1 as framework
B19: Mutation 1-47 (antibody, mouse IgG2b, kappa, V domains shown)
VH: EVQLQQSGPEVVKPGASVKISCKASGSTITDYYMNWVKQSHGKGLEWIGDVNPINGGTAYNQKFRDKATLTVDKSSNTAYMELRSLTSEDSALYYCTKGAEDYWGQGTTLTVSS
VL: DVVLTQTPLSLSVTIGQPASISCKSSQSILYSQGKIYLNWFQQRPGQSPKRLMYQVSKLEPGIPDRFSGSGSETDFTLKISRVEAEDLGVYYCLQATYSPQTFGGGTKLEIKR
notes: Mutation 1 as framework
B20: Mutation 1-28 (antibody, mouse IgG2b, kappa, V domains shown)
VH: EVQLQQSGPEVVKPGASVKISCKASGYTITDYYMNWVKQSHGKGLEWIGDINPIQGGTAYQQKFRDKATLTVDKSSNTAYMELRSLTSEDSALYYCTKGAEDYWGQGTTLTVSS
VL: DVVLTQTPLSLSVTIGQPASISCKSSQSIIYSNGKIYLNWFQQRPGQSPKRLMYQVSKLDPGIPDRFSGSGSETDFTLKISRVEAEDLGVYYCLQATYTPQTFGGGTKLEIKR
notes: Mutation 1 as framework

These binders were tested against T1, Plasmodium falciparum histidine-rich … (assay: indirect ELISA, four antigen coating concentrations).
Work on B1 yielded a Kd of 0.521 nM. With B2 the Kd was 0.582 nM. Binder B3 has a Kd of 0.311 nM. Work on B4 yielded a Kd of 0.0856 nM. B5 was tested, and the Kd was 0.0923 nM.

Biological target: T1, Plasmodium falciparum histidine-rich …
Test: as above
Remark: another data set of the same source
Description: The OD values corresponding to different antibody concentrations with different coating concentrations are obtained. Under the same coating concentration, the antibody concentrations are used as an abscissa, the 00 values are used as an ordinate, and a logarithmic plot is made. […] An average value thereof is taken and a reciprocal thereof is calculated to get the affinity constant KD.
Binder B6 has a Kd of 0.244 nM. B7 showed a Kd of 0.0835 nM. B8 gave a Kd of 0.169 nM. Work on B9 yielded a Kd of 0.0721 nM. For B10, the Kd was 0.0956 nM. B11 showed a Kd of 0.233 nM. For B12, the Kd was 0.384 nM. Binder B13 has a Kd of 0.302 nM. Work on B14 yielded a Kd of 0.382 nM. B15 showed a Kd of 0.333 nM. In the case of B16, the Kd is reported as 0.0946 nM. B17 gave a Kd of 0.365 nM. Binder B18 has a Kd of 0.521 nM. B19 showed a Kd of 0.0828 nM. B20 gave a Kd of 0.012 nM.
